Substitutions are numbered along the chain they refer to.

The results in this text go back to PMC3139092 (Journal of Biological Inorganic Chemistry, 2011).

One series deals with T1, mutant Val87 (M11) (Priestia megaterium, UniProt P14779, E144G/E268V/E65G/F82I/F88V/G416S/H286Y/L189Q/R48L/Y199C).
T1 sequence (P14779 1-1049 R48L/E65G/F82I/F88V/E144G/L189Q/Y199C/E268V/H286Y/G416S): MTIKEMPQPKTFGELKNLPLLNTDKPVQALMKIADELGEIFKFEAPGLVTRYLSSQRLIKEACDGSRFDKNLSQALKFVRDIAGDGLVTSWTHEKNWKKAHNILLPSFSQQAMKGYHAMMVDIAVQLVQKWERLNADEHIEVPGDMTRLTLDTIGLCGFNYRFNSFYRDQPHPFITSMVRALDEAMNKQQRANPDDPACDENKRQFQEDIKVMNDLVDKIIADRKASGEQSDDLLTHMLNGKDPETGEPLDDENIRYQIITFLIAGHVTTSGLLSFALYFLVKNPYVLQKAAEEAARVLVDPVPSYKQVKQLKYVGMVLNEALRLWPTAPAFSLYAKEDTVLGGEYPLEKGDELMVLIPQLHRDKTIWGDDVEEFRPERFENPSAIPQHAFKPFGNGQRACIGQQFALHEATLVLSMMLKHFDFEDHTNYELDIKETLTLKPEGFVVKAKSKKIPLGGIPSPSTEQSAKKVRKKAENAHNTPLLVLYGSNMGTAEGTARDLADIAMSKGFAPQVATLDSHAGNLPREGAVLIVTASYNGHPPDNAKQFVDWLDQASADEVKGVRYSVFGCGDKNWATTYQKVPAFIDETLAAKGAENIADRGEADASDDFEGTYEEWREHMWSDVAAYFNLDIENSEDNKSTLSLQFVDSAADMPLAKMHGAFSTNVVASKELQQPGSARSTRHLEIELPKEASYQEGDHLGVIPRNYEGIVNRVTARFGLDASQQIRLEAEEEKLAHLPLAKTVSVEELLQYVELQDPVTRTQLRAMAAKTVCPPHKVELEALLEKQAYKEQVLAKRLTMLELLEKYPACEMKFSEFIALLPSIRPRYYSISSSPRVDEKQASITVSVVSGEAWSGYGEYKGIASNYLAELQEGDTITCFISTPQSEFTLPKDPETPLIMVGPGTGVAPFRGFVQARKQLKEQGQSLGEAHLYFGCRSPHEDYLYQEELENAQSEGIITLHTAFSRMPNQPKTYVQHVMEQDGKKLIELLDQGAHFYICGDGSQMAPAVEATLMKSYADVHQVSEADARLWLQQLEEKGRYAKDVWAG
Format: biochemical, Bacillus megaterium. To be noted: 1 μM ketoconazole.

Series [1] is described as follows: Alkoxyresorufin O-dealkylation by CYP102A1 M11 mutants and wild-type CYP102A1. Format: biochemical. To be noted: 20 µM alkoxyresorufin, 20 nM P450 BM3, 25 °C.
A short description of series [2]: Alkoxyresorufin-induced NADPH consumption. Format: biochemical. The settings on record: 20 nM enzyme, 200 µM NADPH, 25 °C.
The nature of series [3]: Lauric acid induced NADPH consumption. Format: biochemical. The settings on record: 0.1 mM lauric acid.
[4] abbreviates: benzyloxyresorufin as the substrate, data not shown.

Take `CC(=O)N1CCN(c2ccc(OCC3COC(Cn4ccnc4)(c4ccc(Cl)cc4Cl)O3)cc2)CC1` (centres unmarked) [ketoconazole]: the “Inhibition of lauric acid induced NADPH consumption” value on mutant Val87 (M11) (0.1 mM lauric acid) is recorded as “completely blocked”. Further, on mutant Val87 (M11) (setting [4]), the “Inhibition of substrate-induced NADPH consumption” value was “almost completely block” and the “Inhibition of the O-dealkylation reaction” value is “almost completely block”.

B1: Wild type (Phe87): Cytochrome P450 BM3 (CYP102A1) from Bacillus megaterium, wild type, Phe at position 87 (protein, UniProt P14779 1-1049, looked up)
Bifunctional cytochrome …: T1 sequence (P14779 1-1049 R48L/E65G/F82I/F88V/E144G/L189Q/Y199C/E268V/H286Y/G416S) with L48R, G65E, I82F, V88F, G144E, Q189L, C199Y, V268E, Y286H, S416G
Regarding B1, the “Specific activity of alkoxyresorufin O-dealkylation, side chain n-Heptyl” value in series [1] (substrate n-heptoxyresorufin) is given as 0.17 nmol resorufin/min/nmol P450. Besides, the “Specific activity of alkoxyresorufin O-dealkylation, side chain n-Octyl” value in series [1] (substrate n-octoxyresorufin) is given as 0.18 nmol resorufin/min/nmol P450. Also, the “Specific activity of NADPH consumption, DMSO” value in series [2] (no substrate, solvent DMSO (2%) only) turned out to be 45 nmol NADPH/min/nmol P450. The “Specific activity of alkoxyresorufin-induced NADPH consumption, side chain Ethyl” value in series [2] (substrate ethoxyresorufin 20 µM) is 3,970 nmol NADPH/min/nmol P450. The “Effect of lauric acid on NADPH consumption” value in series [3] is recorded as “strongly stimulated”.
